According to article PMC9813914, “Structural Basis for a Cork-Up Mechanism of the Intra-Molecular Mesaconyl-CoA Transferase” (Biochemistry, 2022):

Assays:
purified protein [1] = substrate: C/C(=C\C(=O)SCCNC(=O)CCNC(=O)[C@H](O)C(C)(C)COP(=O)(O)OP(=O)(O)OC[C@H]1O[C@@H](n2cnc3c(N)ncnc32)[C@H](O)[C@@H]1OP(=O)(O)O)C(=O)O; assay: purified protein; assay type: biochemical, Chloroflexus aurantiacus; conditions: 200 mM HEPES/KOH pH 8.0, 55 °C, 22 nM Mct, intra-molecular CoA transfer C4 to C1
purified protein [2] = substrate: C/C(=C\C(=O)O)C(=O)SCCNC(=O)CCNC(=O)[C@H](O)C(C)(C)COP(=O)(O)OP(=O)(O)OC[C@H]1O[C@@H](n2cnc3c(N)ncnc32)[C@H](O)[C@@H]1OP(=O)(O)O; assay: purified protein; assay type: biochemical, Chloroflexus aurantiacus; conditions: 200 mM HEPES/KOH pH 8.0, 55 °C, 22 nM Mct, intra-molecular CoA transfer C1 to C4

B1: Mct (mesaconyl-CoA transferase; mesaconyl-C1:C4-CoA CoA transferase) (Chloroflexus aurantiacus J-10-fl) (protein)
chain: MKGILHGLRVVEGSAFVAAPLGGMTLAQLGADVIRFDPIGGGLDYKRWPVTLDGKHSLFWAGLNKGKRSIAIDIRHPRGQELLTQLICAPGEHAGLFITNFPARGWLSYDELKRHRADLIMVNLVGRRDGGSEVDYTVNPQLGLPFMTGPVTTPDVVNHVLPAWDIVTGQMIALGLLAAERHRRLTGEGQLVKIALKDVGLAMIGHLGMIAEVMINDTDRPRQGNYLYGAFGRDFETLDGKRVMVVGLTDLQWKALGKATGLTDAFNALGARLGLNMDEEGDRFRARHEIAALLEPWFHARTLAEVRRIFEQHRVTWAPYRTVREAIAQDPDCSTDNPMFAMVEQPGIGSYLMPGSPLDFTAVPRLPVQPAPRLGEHTDEILLEVLGLSEAEVGRLHDEGIVAGPDRAA
notes: intertwined homodimer
Km (purified protein [1]): 200 µM
kcat (purified protein [1]): 320 s⁻¹
Km (purified protein [2]): 160 µM
kcat (purified protein [2]): 370 s⁻¹
